Experimental data taken from the DeepSol protein solubility set.

Experiment: soluble on expression in E. coli; label from the status in PepcDB or PDB records

With “MGSDKIHHHHHHMRRQANSPSPDPVSTTRPVAWRPTLAKQKGETKHSALTERIIADIDAGVLKPMDRMPTHRDLARELGLSVQTVSLSYKEAERLGYLSGEIGRGTFVKTRVTERAGRMMLDHSPTEVLDLSIIRGVYLDDHENASRTILREMADSDNSGFMRPCRPVAGLDSHRETARTWLGMMGVTAGAERILVTNGAAHGIFLALSCIIRSNDVVLCENLTDHGIIGLSNILGFSLKGLPTDEEGILPDALEAACAAGGVRALVLIPTLNNPTGHVSGAARRQAIATIAERYGIFIIEDEVYRPMIEDDLPSITEMLPDLGFFVTSFTKTVLTGLRVGYLVVPPAYSIRAASILRVSSWSGTYLTAEIATRWVENGTARRLLDVQRTEARARQKIAVDILGDHIGSTHPLSFCAWLTVPPRWTEDGLVRALTNQNVAVTPSEPFIAGPGHGGGIRICLGGRLNHASLARALTTVRQTFEQLPPVYDIGSIG” as the sequence, how does the “soluble on expression in E. coli” value read?
Its value is “not soluble”.

With “MGSDKIHHHHHHMRRRHVGVGAELTAFRILAAISCERLFWETGSRNQAVKTRAESANREISMIRTAMIAATALAASLAASAPAFAADVVGLWATPGNGGQVEISRCGNSLCGKLVTSDHIKTNPGLKDIKNKDESQRSRTLKNLQMLYDFSGGPTKWTGGKVYNPEDGGVYAGTIELVSTTELKLKGCVVAPLCKTQKWTRIR” as the sequence, how does the “soluble on expression in E. coli” value read?
The value was “not soluble”.

Which “soluble on expression in E. coli” value does the source give for “MGSDKIHHHHHHMRRRVPLNSVRAFEAAARRMSLVQASDELCVTPTAVSHQIRQLEDFLQTKLFLRRSSRLELTPESRACLAKLTEALDIIDDAIAALHKPMDMPERLVVGASASVGSLWLMPRLRNFYRTAPEIDISLTTFIERSAIETDTSDVWICNWHTNLDRRVELLLEEDIIPVCSPQMAEEFGELSFDSLRELPLVHVDRAKASINGQYPDWDRYLREYGISRNDIAKGPRFNQAGPAIEAAKAGMGALLGRSILIERALETGELIRLGDPYPIRNPYYLISPLQPASNAVKMFKDWIFAQAKTRTSTYVELPHKNRRGSDFRLTV” here?
Its value is “not soluble”.

Which “soluble on expression in E. coli” value does the source give for “MGSDKIHHHHHHMRTEFIPPSVTRAAFRLPTLSRLPPLTALRAFVVAARHASFSRAAEELHVSTAAIGQQVRILETHLGQPLFSRQRGELVLTDAGSTLYPGLADAFETMIGSLSDLMASGSRRQVKVLAEGCFAARWLAPRLGRIVPALGDVDIWIESLEGDAIDLTQFDADCAIVATHGQIPGFIHEPLFADTVSAVCTPDFAARHQLCGEPERLRDISFAMLRGNGGDAAFEWANWLRACRIPLRLSATGPRFSRQTALIEAILSGHGIGLARHSLISDELKSGRLIAAFGTPQPTASRYHLLTSPDRRRLPEIASLLALLREDIRSLEAAA” here?
Its value is “not soluble”.

With “MGSDKIHHHHHHMRTVQAISGLVTSRFFGTSTRIMASGKTLNTSNINPNVIKMEYAVRGPIVIRAVELEKELATGAQKPFPNVIKANIGDAHAMGQKPITFIRQLLACIVNPEIMKTDKSIPSDVIEHANAFLGSCGGKSAGAYSQSTGVEIVRKHVAEYIKRRDGGIPCNSEDVCLSGGASESIRNVLKLFINHNNAKKVGVMIPIPQYPLYSATIEEFGLGQVGYYLSESSNWSMDEAELERSFNDHCKEYDIRVLCIINPGNPTGQALSRENIETIIKFAQKKNLFLMADEVYQDNVYAQGSQFHSFKKVLVEMGEPYNKMELASFHSVSKGYMGECGMRGGYVEFLNLDPEVYVLFKKMISAKLCSTVLGQAVIDAVVNPPKEGDASYALWKQEKDAVLASLKERATLVEKAYSSIDGISCNPVQGAMYAFPQITIPQRAVEKAQSLNQQPDFFYAMQLLETTGICIVPGSGFGQKDGTYHFRTTILPQPELFKDMLSRFTDFHQKFLAEYKRLYCHFHLTNNRTSDSFWHTLIDGFPKYKVFVQNRRSTQCAFHSIQLSRF” as the sequence, how does the “soluble on expression in E. coli” value read?
Its value is “not soluble”.

Which “soluble on expression in E. coli” value does the source give for “MGSDKIHHHHHHMRVALLMGGVSREREISLRSGERVKKALEKLGYEHTVFDVREDFLKKVDQLKSFDVVFNVLHGTFGEDVTLQAILDFLGIRYTGSDAFSSMICFDKLVTYRFLKGTVEIPDFVEIKEFMKTSPLGYPCVVKPRREGSSIGVFVCESDEEFQHALKEDLPRYGSVIVQKYIPGREMTVSILETEKGFEILPVLELRPKRRFYDYVAKYTKGETEFILPAPLNPSEERLVKEMALKAFVEAGCRGFGRVDGIFSDGRFYFLEINTVPGLTETSDLPASAKAGGIEFEELVEIILKSAFLKEGVRV” here?
Its value is “not soluble”.

Which “soluble on expression in E. coli” value does the source give for “MGSDKIHHHHHHMRWFHKKGELARDGWQSVVDATTPGWEYTGIRIAELGSGESLELNDTGVERIFIPLQGSFDVAHHGQVTHLHGRKSVFDGPTDVLYLPTGQTATLSGQGRVAVAEAPTQEPKEWKYIAPAETPVELRGAGRSSRQVHNFGTPEALDAARLIVCEVITPGENWSSYPPHKHDEHIPGHESKLEEIYYFESAPSRVGGRAEAAEGAFGMFSTYSSPAGEIDINAMVYSGDIALVPFGYHGPAVAAPGYDLYYLNVMAGPDPERIWLINDDPAHAWVRDTWTGQAFDDRLPYENANKEG” here?
The value was “not soluble”.

For “MGSDKIHHHHHHMRYESSKKILVIEDDAVTRNLFLEVLEAQGFDTIGAEDGVAGIQKAQEHLPDLVICDIQMPDMDGYTVLARLRQDPHTAIIPFIFLTGSNTQTDVRKGMESGADDYLTKPSSIEDFLRAIAVRLEKQAFLRYWYATNSHQTAQSPPSSFNSESIFPSVPQLQAVFDFIEANYRQGITLSDVALAVGYSPAYLTNRVAKQTGETVNAWIVKRRMAAARPLLRDTNQTIDQIAIALGYQNTCHFSRQFRQHHGLSPKTWRKQQQLLQSSKNAKLQLIKNHDALEKLVPLGC”, which “soluble on expression in E. coli” value is on record?
The value was “not soluble”.

Which “soluble on expression in E. coli” value does the source give for “MGSDKIHHHHHHMSAAVERSPEEKRVIPVALSSASVYPLSVHDAFAVAQDLGFDGVEVMVTNNATSQSPHSLLELSHRYRQPIVSIHAPTLLLTQKVWGSAWNKIEMSCRMAREVGCGTVVVHPPFRWQNNYAENFPAGIRQLADMYQVRIAVENMYPWRVRGRETVAYLPHWDPLGQDYDDVTWDFSHAATAGANSVEAIKALGGKLRHIHLTDGSGSGRDEHLIPGRGNQGCAEALQHLAGSGFDGVVVAEISTRRAKFAGERELWLNETLKFARQHLSHPLVGAREA” here?
The value was “not soluble”.

Which “soluble on expression in E. coli” value does the source give for “MGSDKIHHHHHHMSADTLFPKLDIPATIAAGPGPGNTDARVLAAFSGAGLADHMHGDVLRGMVECKLMLRRIWGTDNIHTFGVAGTGWSGLDVMFSAVMPGDKVVVFTNGTFSGIDGLTVRMKAATAEELAANPLDPRPASVVIVDIPHGQSVTGEIVETALAEHKPKWAAMAHWETGSGRINDIAGFSAACERHDVMGLVDAVSSLGVEDFRIDDFPGVHGWASCPQKGICCLPLTYAPVSFTDRYIQTLRATGTRSFVHHPILEARHWGVIEGKDVDKGTYHRTHSAYAVAAFHEALRITLQQGVANRAKDYAYHEAALRRAVEALGCEVTSNMTSLVVLNLPGDLRGREMELVQNCRARNFGIWPTLSAPVQVRIGILNLLSRAAVTDIVTRFAEAIRELGGAGDEATALAALDAHYDNAIAAE” here?
The value was “not soluble”.

For “MGSDKIHHHHHHMSALLEVKGLNVSFRQDGRISQAVRGVSFTVNRGETVALVGESGSGKSVSALSTVSLLGDSAIVEGSVTYDGQEMIGASEQRLMDVRGNDISFIFQEPMTSLNPLHTIRKQMAESLALHQGLVGAAALERILELLVKVGIRDPETRLDAYPHQLSGGQRQRVMIAMALANKPDILIADEPTTALDVTIQAQILELLADLQREENMGMLFITHDLGIVRRIADRVCVMKAGEIVESGSTEEIFANPRHPYTRKLLAAEPKGRPDPVPAGAEEVARTDHLRVWFPIQRGFLRRTVGHVKAVNDASISVRAGETLGIVGESGSGKTTLALAIMRLIGSEGGITFRGEDVRSWSTRELRRLRKDMQIVFQDPFGSLSPRMTCAQIISEGLAIHKVDPHRAPRELVAEVMQEVGLDPATMDRYPHEFSGGQRQRIAIARAMVLRPRLLVLDEPTSALDMTVQVQIVALLRDLQRKYGLAYLFISHDLKVVRAMSHKVIVMRQGDVIEMGETEALFTNAQTDYTRSLIAAAG”, which “soluble on expression in E. coli” value is on record?
Its value is “not soluble”.

For “MGSDKIHHHHHHMSAMLTVEGLGKSYRVWGSEWLRAASWFGLKVKPREEHWVLRNVGFSVTAGESIGIMGRNGAGKSTLLKLITGTSQPTEGRIVRRGRIAAILELGMGFNPDLSGRENARHSAGLMGYTLDQIEAVLPEIQEFAEIGDYFDEPVRTYSSGMQVRVAFAVATAFRPDVLIVDEALSVGDVYFQAKCFKRILSFKEKGMTLILVSHSVGDVVKHCDRAILIKDGGVYADGPSREVSNLYLDELFGKKPASLQAEAKDTPKDLRAGTEDLFHTRPYYNAGEHRWGQGGARILDYVVVSDGQEFPARVESGSRTAFYVKIAFDQDFDSVVPGILVKTLEGLFLYGTNSFLSSEGRTGIAAKAGDVIVCKFTMPLDLNEANYLISLGISSGDPLVELTPLDRRYDAIVLNVARGMQFWGMMDLKADFEIVEALS”, which “soluble on expression in E. coli” value is on record?
Its value is “not soluble”.

For “MGSDKIHHHHHHMSAPLDIDQLQTFVAIADTGSFTKAADRVFKTQSAVSMQMRRLEERIGKPLFMKDGRGNRLTVEGDRLLNFARRMIRLNNEAIASFDDNRLEGTLRIGTPDDYADRYMPEIIVRFAKTHPNVELYIICEPSVDLAEKMAKGDLDIALVTHNPRARASDVVRTEPLCWVSSINHPLPENAPIPLAVGRRDCQWRQAACAALDATGKEYQILFTSWSSTVVAAAVLAGMAVSVLPESALRPGMKVLTLADGFPSLAPVQIGIMKRPGLSPSLSNAITNHITACLDNITPITVNDDLEGDLKGYPRYPRLRQSHMLPGW”, which “soluble on expression in E. coli” value is on record?
Its value is “not soluble”.

For “MGSDKIHHHHHHMSARIPTLDITRFDSDREAFVAELGAAYRQWGFAGIRNHGIAQSDIDAAYEVFKAFFALPDEVKRSYHVPGSGGARGYTAFGVETAKDSKHFDLKEFWHIGREIPDDSPYRAVMAPNLWPTEVPGFRERGYHLYQQLDQLGSRVLSALALHIGLPQDYFADKTDHGNSILRPIHYPPITSDDIPNVRAGAHGDINFITLLVGASAAGLEVRSNEGEWVPFTADADTIVVNIGDMLQRLTNHVYPSTIHRVVNPPGEEARKPRYSVPFFLHPNPDFLIDVLPSCISADNPSRYPEPITAHGFLEERLREIKLK”, which “soluble on expression in E. coli” value is on record?
Its value is “not soluble”.

With “MGSDKIHHHHHHMSAVTESVLESIISPVTMSEFLEEYWPVKPLVARGEVERFTSIPGFEKVRTLENVLAIYNNPVMVVGDAVIEESEGITDRFLVSPAEALEWYEKGAALEFDFTDLFIPQVRRWIEKLKAELRLPAGTSSKAIVYAAKNGGGFKAHFDAYTNLIFQIQGEKTWKLAKNENVSNPMQHYDLSEAPYYPDDLQSYWKGDPPKEDLPDAEIVNLTPGTMLYLPRGLWHSTKSDQATLALNITFGQPAWLDLMLAALRKKLISDNRFRELAVNHQSLHESSKSELNGYLESLIQTLSENAETLTPEQIFQSQDSDFDPYQSTQLVFRQLLTSYKF” as the sequence, how does the “soluble on expression in E. coli” value read?
Its value is “soluble”.

For “MGSDKIHHHHHHMSDAHYDMHKRNGYSSDEPYPEIKVLGPNKYYAELLMDDYAGVSSEFTSVNQYLYHNFDLDETHRELSEMWINISITEMLHMEILAKTIRLLGGNPVYRGSTSSCGAYWNGGFVCYGNSICNRLKLDLHLEHVAINNYYKDISLIEDPYIKAILNRIILDEKLHVSLFEKAIEKYCK”, which “soluble on expression in E. coli” value is on record?
Its value is “not soluble”.

With “MGSDKIHHHHHHMSDITSKVSLTNVAADNTVSSEQAKDINSIGQDLGIDMMASLQQAPFDEMLIREYLLDNPDFFNRYPELLVAMRVPHAERGAVSLVERRQELLRQRVSQLEEEITSLMNIATHNEKIFKFNTELSFKMLASQDLGELRLVLSEGLKNEFGFSHVRLITVHDIDSELAKIWRHRVQSGYYFGRLTQSESKRLFGSEVGSVALTKLSDENGQVIFAIASNDPTHFHPDMDSLLFSQLRRLLDHMLPKM” as the sequence, how does the “soluble on expression in E. coli” value read?
Its value is “not soluble”.

For “MGSDKIHHHHHHMSDTDKQAFLTSVSSKEQVKKVIEPRKVTKCPHCQSTHFVKNGKDCGNQRFLCRDCKKSFVEQTGTILYNTQKDIEVWEKYIHCMIEKYPLRKCAEICKINLATAFTWRHKILDALQNMMNEVELDGIVQADETYSTISYKGHHKNFNLPRPAHKRGTRATKRGISKEQVCVPCGINLDGKSVARISNLGKPSLKNIN”, which “soluble on expression in E. coli” value is on record?
The value was “not soluble”.
